The source of these data is publication doi:10.1101/2020.02.28.970509.

Some targets named below: A3H Hap I K117E (human, UniProt Q6NTF7 1-200, K117E); A3H Hap I K117E/K121E (human, UniProt Q6NTF7 1-200, K117E;K121E); A3H Hap VII (human, UniProt Q6NTF7 1-200, G105R); A3H Hap II (human, UniProt Q6NTF7 1-181, G105R;K121D;E178D).
Common to all, as to assay: fluorescence anisotropy
On the technique in general: Polarisation of emitted light reports the rotation of a fluorescent probe.

Sequence of A3H Hap II (Q6NTF7 1-181 G105R/K121D/E178D): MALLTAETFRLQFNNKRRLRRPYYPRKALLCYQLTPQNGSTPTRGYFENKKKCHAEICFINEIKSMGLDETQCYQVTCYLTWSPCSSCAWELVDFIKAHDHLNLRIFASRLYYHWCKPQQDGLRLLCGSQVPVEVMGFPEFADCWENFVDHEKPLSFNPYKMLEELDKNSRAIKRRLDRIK
Sequence of A3H Hap VII (Q6NTF7 whole entry G105R): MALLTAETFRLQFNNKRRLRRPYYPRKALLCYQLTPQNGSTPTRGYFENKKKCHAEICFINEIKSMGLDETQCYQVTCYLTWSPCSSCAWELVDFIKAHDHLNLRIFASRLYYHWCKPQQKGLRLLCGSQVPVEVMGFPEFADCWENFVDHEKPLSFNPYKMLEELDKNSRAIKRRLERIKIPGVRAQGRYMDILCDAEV
Sequence of A3H Hap I K117E (Q6NTF7 whole entry K117E): as the sequence (Q6NTF7 whole entry G105R) above, with R105G, K117E counted along it
Sequence of A3H Hap I K117E/K121E (Q6NTF7 whole entry K117E/K121E): as the sequence (Q6NTF7 whole entry G105R) above, with R105G, K117E, K121E counted along it

B1: 118 nt ssDNA (ssDNA)
DNA: GAATATAGTTTTTAGCTCAAAGTAAGTGAAGATAATTTAGAGAGTTGTAATGTGATATATGTGTATGAAAGATATAAGACTCAAAGTGAAAAGTTGTTAATGTGTGTAGATATGTTAA
modifications: internal fluorescein-dT at position 37 (between S1 and S2)
Consider B1, for which the equilibrium dissociation constant (Kd) (as a rule, the constant that tells how readily two partners part at equilibrium) in the series with A3H Hap I K117E is 3000 ± 1770 nM; with A3H Hap I K117E/K121E, 1240 ± 88 nM; with A3H Hap VII it was 522 ± 4 nM; in the series with A3H Hap II it was 492 ± 28 nM.
